Results reported in publication PMC4787809 (Nucleic Acids Research, 2015).
Values belong to the molecule of their own block, whether it stands above or below them.

Legend:
[1] = molecular target: Cascade (Cas7-tagged prep) (Escherichia coli) (UniProt Q46901+P76632+Q46899+Q46898+Q46897); experiment: EMSA
[2] = molecular target: T1, Cascade (Cse2-tagged prep) (Escherichia coli, UniProt Q46901;P76632;Q46899;Q46898;Q46897 1-502;1-160;1-363;1-224;1-199); experiment: EMSA
T1 sequence 1: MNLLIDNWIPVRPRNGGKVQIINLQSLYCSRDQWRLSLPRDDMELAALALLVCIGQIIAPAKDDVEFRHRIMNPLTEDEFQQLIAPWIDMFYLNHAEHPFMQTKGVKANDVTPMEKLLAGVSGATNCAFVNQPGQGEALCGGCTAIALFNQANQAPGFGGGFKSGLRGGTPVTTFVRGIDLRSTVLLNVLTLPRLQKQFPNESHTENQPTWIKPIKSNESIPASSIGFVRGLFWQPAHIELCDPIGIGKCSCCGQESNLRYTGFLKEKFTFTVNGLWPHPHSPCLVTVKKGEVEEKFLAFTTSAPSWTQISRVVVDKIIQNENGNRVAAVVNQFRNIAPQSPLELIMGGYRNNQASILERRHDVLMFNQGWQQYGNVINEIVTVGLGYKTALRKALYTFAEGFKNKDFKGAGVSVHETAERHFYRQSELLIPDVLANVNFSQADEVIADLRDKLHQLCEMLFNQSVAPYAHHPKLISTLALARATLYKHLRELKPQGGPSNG
T1 sequence 2: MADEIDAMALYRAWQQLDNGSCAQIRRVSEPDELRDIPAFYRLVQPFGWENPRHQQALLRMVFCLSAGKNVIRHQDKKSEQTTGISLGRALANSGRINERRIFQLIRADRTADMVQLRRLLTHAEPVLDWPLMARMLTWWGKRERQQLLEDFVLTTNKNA
T1 sequence 3: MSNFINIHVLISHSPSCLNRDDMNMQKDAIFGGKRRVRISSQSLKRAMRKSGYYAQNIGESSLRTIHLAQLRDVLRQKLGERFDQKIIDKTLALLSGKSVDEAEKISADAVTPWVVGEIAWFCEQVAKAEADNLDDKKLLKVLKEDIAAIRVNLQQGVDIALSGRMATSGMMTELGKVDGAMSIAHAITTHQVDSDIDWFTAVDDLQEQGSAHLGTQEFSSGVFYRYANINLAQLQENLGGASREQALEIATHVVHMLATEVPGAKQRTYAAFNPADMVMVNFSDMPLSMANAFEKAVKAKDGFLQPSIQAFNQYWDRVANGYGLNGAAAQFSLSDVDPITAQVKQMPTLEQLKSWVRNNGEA
T1 sequence 4: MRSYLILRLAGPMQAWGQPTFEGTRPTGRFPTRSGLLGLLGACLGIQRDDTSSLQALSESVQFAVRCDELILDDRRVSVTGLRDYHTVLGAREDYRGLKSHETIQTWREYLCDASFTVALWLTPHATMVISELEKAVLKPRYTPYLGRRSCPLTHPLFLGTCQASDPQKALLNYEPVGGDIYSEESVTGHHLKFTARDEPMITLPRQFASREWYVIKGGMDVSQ
T1 sequence 5: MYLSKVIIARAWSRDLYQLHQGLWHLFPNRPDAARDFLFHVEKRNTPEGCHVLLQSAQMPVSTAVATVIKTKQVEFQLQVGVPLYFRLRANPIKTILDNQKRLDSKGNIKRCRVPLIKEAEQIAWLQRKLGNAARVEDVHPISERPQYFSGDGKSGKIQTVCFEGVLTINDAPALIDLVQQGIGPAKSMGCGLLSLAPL

crystal structure = molecular target: the molecule itself; experiment: crystal structure
[3] = molecular target: T2, Cse1 (tail subunit of E. coli Cascade) (Escherichia coli K12, UniProt Q46901 1-502); experiment: crystal structure
T2 sequence: T1 sequence 1

Molecule: GCGCGGCAAGCCGAAAGCATGACGGTATTGTTCAGATCCTGGCTTGCCAACAGTGATTGCTCGGGAGTCGCT (double strand) [72 bp dsDNA target (+21), CAT PAM]
Kd [1]: 13.3 nM

B1: 72 bp dsDNA target (+21), CAT PAM (dsDNA)
DNA 1: GCGCGGCAAGCCGAAAGCATGACGGTATTGTTCAGATCCTGGCTTGCCAACAGTGATTGCTCGGGAGTCGCT
DNA 2: AGCGACTCCCGAGCAATCACTGTTGGCAAGCCAGGATCTGAACAATACCGTCATGCTTTCGGCTTGCCGCGC
Kd [2]: 1.14 nM

B2: Cas7 as in the crystallised Cascade (natural protein)
chain: T1 sequence 3
stoichiometry N (crystal structure): 6

binding result [3]: binds
B3: Cas5e (subunit of E. coli Cascade) (natural protein)
chain: T1 sequence 4
